According to patent US20240034757A1 (OXFORD UNIVERSITY INNOVATION, published 2024):
Where two headings read alike, the source gives them in different places.

Tests used:
CCL8_HUMAN [1] = biological target: T1, CCL8_HUMAN (human, UniProt P80075 24-99); assay: cell-based or functional assay
T1 sequence (looked up): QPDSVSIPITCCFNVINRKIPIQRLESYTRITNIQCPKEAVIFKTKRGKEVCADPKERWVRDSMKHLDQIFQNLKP

CCL3_HUMAN [2] = biological target: T2, CCL3_HUMAN (human, UniProt P10147 24-92); assay: cell-based or functional assay
T2 sequence: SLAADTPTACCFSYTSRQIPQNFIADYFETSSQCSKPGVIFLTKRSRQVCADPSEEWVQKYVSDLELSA

CCL8_HUMAN [3] = biological target: T1, CCL8_HUMAN; assay: cell-based or functional assay; remark: listed apart in the source
CCL2-647 = CCL2-647 (human, UniProt P13500 24-99); assay: flow cytometry, inhibition of CCL2-647 binding to THP-1 cells
CCL8-647 = biological target: T3, CCL8-647 (human, UniProt P80075 24-99); assay: flow cytometry, inhibition of CCL8-647 binding to THP-1 cells
T3 sequence (looked up): T1 sequence (looked up)

CCL18_HUMAN [4] = biological target: T4, CCL18_HUMAN (human, UniProt P55774 21-89); assay: yeast surface display FACS
T4 sequence: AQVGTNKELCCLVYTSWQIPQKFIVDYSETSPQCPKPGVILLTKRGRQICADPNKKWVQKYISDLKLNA

CCL17_HUMAN = biological target: T5, CCL17_HUMAN (human, UniProt Q92583 24-94); assay: yeast surface display FACS
T5 sequence: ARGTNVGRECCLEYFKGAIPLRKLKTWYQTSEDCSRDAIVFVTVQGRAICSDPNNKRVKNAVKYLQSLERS

CCL11_HUMAN [5] = biological target: T6, CCL11_HUMAN (human, UniProt P51671 24-97); assay: yeast surface display FACS
CCL5_HUMAN [6] = biological target: T7, CCL5_HUMAN (human, UniProt P13501 24-91); assay: yeast surface display FACS
T7 sequence: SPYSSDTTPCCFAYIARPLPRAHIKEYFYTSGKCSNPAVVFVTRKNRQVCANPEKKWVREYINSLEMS

CCL25_HUMAN = biological target: T8, CCL25_HUMAN (human, UniProt O15444 24-150); assay: yeast surface display FACS
T8 sequence: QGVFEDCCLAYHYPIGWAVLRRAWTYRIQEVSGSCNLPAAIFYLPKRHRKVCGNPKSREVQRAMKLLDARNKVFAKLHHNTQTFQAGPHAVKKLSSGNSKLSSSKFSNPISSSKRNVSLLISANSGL

CCL19_HUMAN = biological target: T9, CCL19_HUMAN (human, UniProt Q99731 22-98); assay: yeast surface display FACS
T9 sequence: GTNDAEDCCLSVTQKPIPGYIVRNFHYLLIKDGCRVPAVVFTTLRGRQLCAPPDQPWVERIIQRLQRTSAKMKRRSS

CCL3_HUMAN [7] = biological target: T2, CCL3_HUMAN; assay: yeast surface display FACS
CCL1_HUMAN [8] = biological target: T10, CCL1_HUMAN (human, UniProt P22362 24-96); assay: yeast surface display FACS
T10 sequence: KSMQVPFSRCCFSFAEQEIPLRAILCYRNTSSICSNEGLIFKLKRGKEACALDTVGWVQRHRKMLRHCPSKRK

CXCL3_HUMAN = biological target: T11, CXCL3_HUMAN (human, UniProt P19876 35-107); assay: BLI
T11 sequence: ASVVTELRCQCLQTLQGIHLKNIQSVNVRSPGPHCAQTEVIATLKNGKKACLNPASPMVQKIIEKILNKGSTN

CXCL1_HUMAN = biological target: T12, CXCL1_HUMAN (human, UniProt P09341 35-107); assay: BLI
T12 sequence: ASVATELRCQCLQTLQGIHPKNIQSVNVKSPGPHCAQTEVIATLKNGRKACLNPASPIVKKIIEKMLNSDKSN

CCL8_HUMAN [9] = biological target: T1, CCL8_HUMAN; assay: yeast surface display FACS
CCL18_HUMAN [10] = biological target: T4, CCL18_HUMAN; assay: yeast surface display FACS; remark: listed apart in the source
CCL11_HUMAN [11] = biological target: T6, CCL11_HUMAN; assay: yeast surface display FACS; remark: listed apart in the source
CXCL12_HUMAN = CXCL12_HUMAN (human, UniProt P48061 22-89); assay: yeast surface display FACS
CCL1_HUMAN [12] = biological target: T10, CCL1_HUMAN; assay: yeast surface display FACS; remark: listed apart in the source
CCL5_HUMAN [13] = biological target: T7, CCL5_HUMAN; assay: yeast surface display FACS; remark: listed apart in the source
CCL8_HUMAN [14] = biological target: T1, CCL8_HUMAN; assay: BLI, dose titration
CCL15_HUMAN = biological target: T13, CCL15_HUMAN (human, UniProt Q16663 22-113); assay: yeast surface display FACS
T13 sequence: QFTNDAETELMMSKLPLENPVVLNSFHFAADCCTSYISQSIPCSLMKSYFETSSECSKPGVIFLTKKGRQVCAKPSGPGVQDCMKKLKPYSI

CCL4_HUMAN = biological target: T14, CCL4_HUMAN (human, UniProt P13236 24-92); assay: yeast surface display FACS
T14 sequence: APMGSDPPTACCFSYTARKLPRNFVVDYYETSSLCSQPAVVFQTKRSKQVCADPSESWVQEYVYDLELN

T6 sequence (P51671 24-97 limits assumed): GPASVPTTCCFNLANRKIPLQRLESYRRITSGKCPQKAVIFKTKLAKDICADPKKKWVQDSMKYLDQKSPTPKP
Chain of CCL2-647 (P13500 24-99 limits assumed): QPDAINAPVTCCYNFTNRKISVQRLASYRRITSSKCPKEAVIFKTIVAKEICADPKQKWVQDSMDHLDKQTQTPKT
Chain of CXCL12_HUMAN (P48061 22-89 limits assumed): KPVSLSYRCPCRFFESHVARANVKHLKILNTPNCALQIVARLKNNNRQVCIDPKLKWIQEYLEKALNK

B1: P672_RHIPU (other)
chain: VCEVSEQEGVGEDNATEDEDYEDFFKPVTCYFANSTVGPLRPPNCTVVCTNNTAWWNDTKSDGGHCYSEYRPEKRTHSREIYNCTIGVCGNGTCIANHTYADCW
For B1, the “IC50, CCL8 induced THP-1 cell migration” value (CCL8_HUMAN [1]) was 0.003 µM, the “IC50, THP1 cell migration” value (CCL3_HUMAN [2]) was 0.00574 µM and the “IC50, THP1 cell migration” value (CCL8_HUMAN [3]) was 0.00237 µM. The IC50 (CCL2-647) was 0.021 µM and the IC50 (CCL8-647) was 0.021 µM.

B2: P1011_AMBTR (other)
chain: EKDTPKNIPGCEDAGTTAAPPADNPKHYAVYTDKNGCTFKVIGTWMTKEDHRRLPVSLRRVRASSGRVKLPASCQKICKHSVKKFPEGTPCRLVTRDPIKGKNHIKNGCIRGYCSSGVCVSDNRSISCYVLPNNTELTSPSGSFAE
B2: binds (CCL18_HUMAN [4]); binds (CCL17_HUMAN); binds (CCL11_HUMAN [5]). B2: binds (CCL5_HUMAN [6]); binds (CCL25_HUMAN).

B3: P1005_AMBMA (other)
chain: EKDTPKNIPGCGDTGTTAAPPADNPKHFAVYTDKHGCTIKVIGTWMTKEDHSRLPVSLRRVRASSGRVMLPASCQKICNDTVKNFPEGTPCRLVTGDPIKGKNHIKDGCIRGYCSSGVCVSDKRNISCYVPPN
B3: binds (CCL17_HUMAN); binds (CCL19_HUMAN); binds (CCL11_HUMAN [5]). B3: binds (CCL3_HUMAN [7]); binds (CCL1_HUMAN [8]); binds (CCL5_HUMAN [6]).

B4: P943_IXORI (other)
chain: RSKQPTASQSSKNSIKAEFCDTNCTQGTNGAWSGCSEGCFCVHVGNNTKGRCMKLSSDYDYTTQ
Binder B4 has a Kd (CXCL3_HUMAN) of 0.27 µM and a Kd (CXCL1_HUMAN) of 0.54 µM.

B5: P698_RHISA (other)
chain: NEDDSSDYYDASPMNCSSMSVNSTMGWLSMNCTMSCNGTTFPLSNSTHCFHSYTNLTVQSRMETMTYNCSVGTCSNGTCVENGTTTTCW
B5: binds (CCL8_HUMAN [9]); binds (CCL5_HUMAN [6]).

B6: P1209_AMBPA (other)
chain: KTDTKNAAGELPPKVAIPGCEDPATTKAPLPDDPRYYGVTIDKDGCQRKVLGSSQRQQRQVQNGRKPGRKGRGRRPVFVDLKLTVDCKRKCNGTYSQLPDGEPCLVCDGEPYGRHRTIKGGCYQGNCSSGQCHRGERKVNCYIPKNITNNVLNSVNLAE
B6: binds (CCL18_HUMAN [10]); binds (CCL11_HUMAN [11]); binds (CXCL12_HUMAN). B6: binds (CCL1_HUMAN [12]); binds (CCL5_HUMAN [13]).

B7: EVA1(P672 22-32) hybrid protein (designed binder)
chain: EDDEDYEDFFKPVTCYFLVAENKTGYPTIVACKQDCNGTTETAPNGTRCFSIGDEGLRRMTANLPYDCPLGQCSNGDCIPKETYEVCYRRNWRDKKN
With B7 the Kd (CCL8_HUMAN [14]) was 0.49 µM.

B8: P1006_AMBCA (other)
chain: DTIGGIPGCGDPATTSAPEDQPKHYAVRTDKNGCKVMVIGTWMTKEDHNLLPPYISKERAPSGKVQLPASCKKNCHGKLKNLPNGTPCREVFGDLRRRRKHIKDGCKVGKCQNGLCVSEERIISCYLPPNITDPRPTHGPLAE
B8: binds (CCL15_HUMAN); binds (CCL19_HUMAN); binds (CCL5_HUMAN [6]). B8: binds (CCL25_HUMAN).

B9: P1014_AMBCA (other)
chain: DIIGGIPGCGDPTTTSAPEVPPKHFAVRTDKDGCTLMIIGTWMTTEDHNRLPPDIGEKRAPYGRVQLPASCKKNCHGKVKNLPNGTPCREVFGDPRRGRKHIKNGCTVGKCQSGLCVTDKRIISCYIPPNITDPIPTHGPWAE
B9: binds (CCL4_HUMAN).
